# ± gives the uncertainty stated by the source.
# Test: protein stability index of a GFP-peptide fusion (yeast GPS) (PSI 1-4); higher = more stable; sorted into four equal gates, so the index is relative within each strain
# In short: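 The protein stability index combines read frequencies across sorting gates, each weighted by its gate number and then summed. To obtain those frequencies, a pooled yeast library of GFP fusions to tiled 17-residue yeast protein peptides, on a plasmid also expressing Cherry, was grown to mid-log phase in leucine-free medium. The cells were sorted into four equal gates by GFP/Cherry ratio before plasmid amplification by PCR and Illumina sequencing.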
Sequence,protein stability index (doa10∆),protein stability index (pdr5∆),protein stability index (san1∆),protein stability index (ubr1∆)
VEFINKMENFEFLPLSL [SRB8],3.08 ± 0.16,3 ± 0.069,3.1 ± 0.12,3.16 ± 0.097
KQEIREAVELPLVQADL [RPT3],3.2 ± 0.13,2.81 ± 0.22,3.43 ± 0.12,2.96 ± 0.17
NQTRKAHRNGIKKPKTY [RPL29],2.65 ± 0.083,2.98 ± 0.072,2.92 ± 0.058,2.99 ± 0.063
GSNKAQISIIDIWSISK [YML031W/NDC1],2.55 ± 0.056,2.76 ± 0.054,2.88 ± 0.054,2.97 ± 0.048
KDGRIRIFKITEKLSPL [YGL100W/SEH1],2.84 ± 0.079,2.85 ± 0.09,2.57 ± 0.08,2.79 ± 0.045
VGPSEQNFAEEDDSSNS [REC8],2.56 ± 0.15,2.62 ± 0.11,,
KELESIDVLLEQTTGGN [RPB4],,,,3.22 ± 0.26
INLRKVAEKMNGCSGAD [RPT6],2.45 ± 0.15,2.25 ± 0.28,2.38 ± 0.13,3.07 ± 0.29
GKPVSLPLLYNFNPDNG [FAS1],2.93 ± 0.095,3.27 ± 0.1,2.62 ± 0.075,2.92 ± 0.076
IQSSLMTNLTYFLHLSV [YCS4],2.15 ± 0.065,1.94 ± 0.049,1.89 ± 0.085,2.44 ± 0.058
SVQINVAKVDEEGRAIP [RPS21A],3.28 ± 0.065,3.23 ± 0.089,3.31 ± 0.048,3.32 ± 0.043
EVSMNSIFAMGLCGAGT [RPN1],1.68 ± 0.047,1.61 ± 0.058,1.49 ± 0.091,1.23 ± 0.052
ESELSLLEETQAKLKKN [SMC4],2.7 ± 0.17,3.37 ± 0.2,2.88 ± 0.23,3.11 ± 0.14
LICQNNLNAFVDFSKYN [SRP72],3.1 ± 0.077,2.99 ± 0.063,3.11 ± 0.044,2.54 ± 0.061
IQEANSVDMSALKDPQT [RIP1],,3.43 ± 0.21,,3.26 ± 0.077
SHNENKMDFSSKEGQYK [YIL149C/MLP2],3.27 ± 0.077,3.29 ± 0.07,3.25 ± 0.065,3.28 ± 0.064
ILSVKLAELINMTTIAD [SRB6],2.6 ± 0.072,2.46 ± 0.076,2.75 ± 0.069,2.85 ± 0.068
SVPLVIGQFLEPIDQNT [RPT3],1.88 ± 0.11,2.77 ± 0.095,2.95 ± 0.13,2.71 ± 0.067
NTSLISLFTYFREAIVA [PRP8],1.3 ± 0.049,1.49 ± 0.054,1.34 ± 0.1,1.44 ± 0.049
AGNKVGQSEASLLNLLN [RPP0],3.03 ± 0.12,2.25 ± 0.095,2.67 ± 0.1,2.95 ± 0.12
LQEKISTELNNKQYELF [SWI1],2.51 ± 0.077,2.74 ± 0.072,2.52 ± 0.062,2.77 ± 0.059
LEQREQNENLPSDKSDS [SSN2],3.16 ± 0.07,3.09 ± 0.071,3.04 ± 0.057,3.12 ± 0.056
SGEEKGKKVTGFKDEVL [RPS1A],1.39 ± 0.24,1.73 ± 0.22,,1.61 ± 0.14
NVAVDIINFGEIEQNTE [RPN10],3.23 ± 0.092,3.39 ± 0.075,3.27 ± 0.059,3.14 ± 0.066
NENPYNNGVSNLWKNIF [COR1],,1.96 ± 0.12,2.01 ± 0.15,1.86 ± 0.07
NDEVNEDEEDDNISSFH [YCG1],3.18 ± 0.12,3.28 ± 0.12,3.31 ± 0.074,3.33 ± 0.12
NSAVNNAISNTQDDFTT [SRP54],3.42 ± 0.1,3.07 ± 0.07,3.04 ± 0.064,3.31 ± 0.045

Sequence,protein stability index (doa10∆),protein stability index (pdr5∆),protein stability index (san1∆),protein stability index (ubr1∆)
KTEDPKGGIIASVGDIL [YML031W/NDC1],2.57 ± 0.067,2.62 ± 0.051,2.43 ± 0.046,2.12 ± 0.04
TYEAIEITDAYCFAKND [YMR129W/POM152],2.93 ± 0.061,2.66 ± 0.053,2.7 ± 0.05,3.01 ± 0.045
HFIQKLHTARKILVLTG [SIR2],1.74 ± 0.14,2.36 ± 0.16,1.1 ± 0.15,1.66 ± 0.21
KDLETLYNKIWTEASSS [ECM29],3.24 ± 0.2,2.84 ± 0.14,2.71 ± 0.091,2.51 ± 0.083
KQLIMESQEKYMEPFDL [NSL1],3.29 ± 0.072,3.31 ± 0.054,3.32 ± 0.047,3.28 ± 0.039
LIIRCRVVRPKSLDAET [RPO21],2.35 ± 0.11,2.52 ± 0.09,2.22 ± 0.13,2.51 ± 0.19
KYPMYMQLEEELMKLDG [MED6],2.14 ± 0.091,1.44 ± 0.084,1.39 ± 0.16,1.36 ± 0.06
KVISEILTREVQNSTLA [RPS1B],2.51 ± 0.11,2.86 ± 0.1,2.64 ± 0.069,2.32 ± 0.059
YSRITLIIDDPSKGQSL [RPP1],2.09 ± 0.056,2.44 ± 0.063,2.42 ± 0.048,2.78 ± 0.053
LLNVSVNITKFSKFERS [SKI6],2.32 ± 0.075,2.49 ± 0.049,2.7 ± 0.06,2.44 ± 0.039
KLQLSFVLQMVGKTAQS [SRP72],,,1.42 ± 0.16,
LSLYSTDLENSSLFQEK [ECM29],2.95 ± 0.069,2.81 ± 0.077,3 ± 0.053,2.77 ± 0.046
LSALNSEISSLKGKINN [SMC1],3.03 ± 0.09,3 ± 0.092,3.08 ± 0.064,3.06 ± 0.075
MSNTLFDDIFQVSEVDP [RPB8],3.02 ± 0.084,2.77 ± 0.098,2.85 ± 0.1,3.08 ± 0.054
EDDNNNVEKPSSKPAFN [YLR335W/NUP2],3.12 ± 0.061,3.2 ± 0.071,3.14 ± 0.049,3.2 ± 0.063
QNDTPMFKLGNFESPVL [YLR018C/POM34],2.08 ± 0.066,2.48 ± 0.059,2.62 ± 0.05,2.29 ± 0.034
PNRLVKELQYDNEQNLE [PRE2],,2.97 ± 0.099,2.8 ± 0.094,3.08 ± 0.073
QPQETEEHHEEEPSRVD [RPT4],3.56 ± 0.064,3.44 ± 0.1,3.23 ± 0.074,3.22 ± 0.086
LLKSTGLHPFEVAQLGS [RPB4],1.94 ± 0.12,1.81 ± 0.27,,2.73 ± 0.2
KVSDPYVPTRNTFNYDV [RPN4],2.25 ± 0.14,2.39 ± 0.17,1.8 ± 0.28,2.08 ± 0.085
NGKTRTLENTLKAAFVA [RPS2],2.85 ± 0.11,2.8 ± 0.14,3 ± 0.089,2.67 ± 0.085
RKPMGKRINFEKIKDIH [POP1],2.67 ± 0.051,3.12 ± 0.05,3.04 ± 0.065,2.87 ± 0.038
MVCETDVPSEDDPTQLV [RPO21],3.03 ± 0.069,3.24 ± 0.12,3.37 ± 0.1,2.56 ± 0.11
YLEENKSDSQYRFYEYI [MED1],3.04 ± 0.063,3.06 ± 0.062,3.12 ± 0.069,3.13 ± 0.086
KAPNAVVITFEKEDHTL [RPB11],1.26 ± 0.077,2.7 ± 0.12,2.19 ± 0.091,1.97 ± 0.076
DEKKDSDSSKPAFSFGT [YJL041W/NSP1],2.75 ± 0.076,2.49 ± 0.068,3.07 ± 0.067,2.97 ± 0.042
DEDDDQPMISPDNSIFG [SWI3],3.22 ± 0.078,3.35 ± 0.083,3.2 ± 0.086,2.94 ± 0.088
